Measurements reported in publication PMC8727950.

Molecular target: honey bee (Apis mellifera) vitellogenin, full-length hemolymph Vg (honey bee (Apis mellifera)) (UniProt Q868N5)
Test: native gel or EMSA; BN-PAGE of purified Vg, two different amounts loaded; precast 3-12% acrylamide gels, 4 °C, 2 h at 150 V; no reducing agent in loading buffer or gel; monomer to dimer

## honey bee (Apis mellifera) vitellogenin, full-length hemolymph Vg (from UniProt Q868N5 17-1770) (natural protein)
  stoichiometry N: 2
